These results are taken from the supplement of paper PMC9942255.

This data set concerns Bacillus subtilis DB104 (SP-AmyQ fusion secretion). Description: AmyQ secretion efficiency, weighted average sort bin (1 = best secretion, 10 = worst) (bin number (weighted average, 1-10)); higher = lower secretion efficiency. In a few lines:
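The secretion score was taken as the read-frequency-weighted mean bin number, normalised to beads per bin, with low-abundance sequences excluded. Bins came from large-particle flow cytometry sorting of occupied alginate beads (~65 nL, about 0.3 cells each, with fluorescein-starch) into 10 equally populated groups by green/red fluorescence ratio after about 13 h at room temperature and nile red staining. The cells were a B. subtilis DB104 library with mature AmyQ fused to designed signal peptides, integrated at amyE, and each bin's amplicons were Illumina-sequenced.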

Where “and” joins values, the source holds several entries; their conditions need not be identical. Equal values may be shown once.

In turn, MHLIRAAGAVCLAVVLIAGCRFNEDQHQAESENT had an AmyQ secretion efficiency of 3.48. For MHLIRAAGAVCLAVVLIAGCRFNEDQHQAEWENT, the AmyQ secretion efficiency came to 6.12.

In turn, MHLIRAAGAVCLAVVLIAGCRFNEDQHQFEGENT yielded an AmyQ secretion efficiency of 5.53. Consider MHLIRAAGAVCLAVVLIAGCRFNEDQHQFFAEGENT, for which the AmyQ secretion efficiency turned out to be 4.63. The result for MHLIRAAGAVCLAVVLIAGCRFNEDQHQGEGENT reads 6.63.

The sequence MHLIRAAGAVCLAVVLIAGCRFNEDQHQLEGENT gave an AmyQ secretion efficiency of 6.09. Consider MHLIRAAGAVCLAVVLIAGCRFNEDQHQPEGENT, for which the AmyQ secretion efficiency stood at 5.35. As for MHLIRAAGAVCLAVVLIAGCRFNEDQHQVEGENT, the AmyQ secretion efficiency amounted to 4.66. For the sequence MHLIRAAGAVCLAVVLIAGCRFNEDQHQWEGENT, the AmyQ secretion efficiency is 5.73. The same measure for MHLIRAAGAVCLAVVLIAGCRITSIFFNEDQHQAEGENT: 6.96; for MHLIRAAGAVCLAVVLIAGCRKKKRKRHRAEGENT: 7.2; for MHLIRAAGAVCLAVVLIAGCRKNSVQHQAEGENT: 5.67. Regarding MHLIRAAGAVCLAVVLIAGCRKRRRQHQAEGENT, the AmyQ secretion efficiency worked out at 6.76.

As to MHLIRAAGAVCLAVVLIRFNEDQHQAEGENT, the AmyQ secretion efficiency came out at 5.07.

MHLIRAKGAVCLAVVLIAGCRFNEDQHQAEGENT showed an AmyQ secretion efficiency of 6.02.

MHLIRAKKRKCRAVVLIAGCRFNEDQHQAEGENT registered an AmyQ secretion efficiency of 5.77.

MHLIRARRRVCLAVVLIAGCRFNEDQHQAEGENT: the AmyQ secretion efficiency was determined as 6.03.

On to MHLIRQSQGYCQYTVLIAGCRFNEDQHQAEGENT, for which the AmyQ secretion efficiency is 6.47.

Take MHLITAAGAVCLAVVLIAGCRFNEDQHQAEGENT: the AmyQ secretion efficiency amounted to 5.34. The result for MHQIRAAGAVCLAVVLIAGCRFNEDQHQAEGENT reads 6.4; that for MHRRRKAAGAVCLAVVLIAGCRFNEDQHQAEGENT, 4.73; that for MIAYFGKCGYKYGRTRLGVLFGMQQANHG, 8.61. The result for MIAYFGKCLLLVTIMFLGVLFGMFATQQANHG reads 6.56; that for MIAYFGKCLLLVTIMFLGVLFGMFQANHG, 6.57; that for MIAYFGKCLLLVTIMFLGVLFGMHQANHG, 6.41. MIAYFGKCLLLVTIMFLGVLFGMPQANHG came in with an AmyQ secretion efficiency of 5. Regarding MIAYFGKCLLLVTIMFLGVLFGMQQANHG, the AmyQ secretion efficiency is 6.54 and 6.99 and 8.58.

MIAYFGKCLLLVTIMFLGVLFGMQQGNHG yielded an AmyQ secretion efficiency of 5.32.

In turn, MIAYFGKCLLLVTIMFLGVLFGMQQMNHG showed an AmyQ secretion efficiency of 5.05. Sequence MIAYFGKCLLLVTIMFLGVLFGMQQVNHG showed an AmyQ secretion efficiency of 6.78. The result for MIAYFGKCLLLVTIMFLGVLFGMQQYNHG reads 6.5; that for MIAYFGKCLLLVTIMFLGVLFGMSQANHG, 4.69; that for MIAYFGKCLLLVTIMFLGVLFGMWQANHG, 7.19. The result for MIAYFGKCLLLVTIMFLGVLFTAVVVIAGMQQANHG reads 5.06; that for MIAYFGKCLLLVTIMFLGVLFVMQQANHG, 7.39. In turn, MIAYFGKCLLLVTIMFLGVLGMQQANHG had an AmyQ secretion efficiency of 5.4. MIAYFGKCRKRRKRMFLGVLFGMQQANHG came in with an AmyQ secretion efficiency of 7.55.

For MIAYFGKCRKRRTIMFLGVLFGMQQANHG, the AmyQ secretion efficiency came to 4.01. The same measure for MIAYFGKCRKTRTIMFLGVLFGMQQANHG: 3.14; for MIAYFKCLLLVTIMFLGVLFGMQQANHG: 6.01; for MIFTIVVGFLSVLGLAAVFPLTAQAEKA: 2.34.

The sequence MIIWIYVVLVLSIAGIGGFSVHAASS gave an AmyQ secretion efficiency of 7.11.

As for MIKAAAVLLSLGLVFGFSYGAGHVAEAKTK, the AmyQ secretion efficiency was 2.3.
